Experiment [1] concerns the target full-length Avi-tagged Gαt, P04695. Kind of experiment: BLI (steady-state binding curve). The conditions noted are these: chain shown with the change; Avi-tagged Gαt coupled to a streptavidin biosensor; parent: 24 nM.
The target is the same in experiment [2]. Put plainly: BLI (steady-state). The conditions noted are these: chain shown with the change.

Where a chain is given by its changes, count along the chain named. Names and notes keep the numbering of the source.

In general, Kd refers to a measure of binding affinity in units of concentration.

Sequence of full-length Avi-tagged Gαt, P04695 (P04695 whole entry): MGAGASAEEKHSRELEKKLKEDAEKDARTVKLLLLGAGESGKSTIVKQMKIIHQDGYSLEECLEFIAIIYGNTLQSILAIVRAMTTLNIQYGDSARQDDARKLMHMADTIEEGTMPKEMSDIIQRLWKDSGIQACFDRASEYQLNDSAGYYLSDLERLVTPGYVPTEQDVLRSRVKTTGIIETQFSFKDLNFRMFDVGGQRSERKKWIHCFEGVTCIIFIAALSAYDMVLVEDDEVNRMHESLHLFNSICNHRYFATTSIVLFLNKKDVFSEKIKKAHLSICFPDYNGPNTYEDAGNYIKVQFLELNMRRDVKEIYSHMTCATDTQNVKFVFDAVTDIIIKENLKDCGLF

B1: bovine Ric8A1–492, Q5E9J8 F169R (protein)
chain: MEPRAVADALETGEEDVVMEALRAYNRENSQSFTFDDAQQEDRKRLAKLLVSVLEQGLPPSRRVIWLQSIRILSRDRSCLDSFTSRRSLQALACYAGISASQGSVPEPLNMDVVLESLKCLCNLVLSSPVAQALAAEAGLVVRLAERVGLCRQSSFPHDVQFFDLRLLRLLTALRTDVRQQLFQELQGVRLLTRALELTLGMTEGERHPELLPPQETERAMEILKVLFNITFDSIKREVDEEDAALYRHLGTLLRHCVMLAAAGDRTEELHGHAVNLLGNLPVKCLDVLLTLEPHEGSLEFLGVNMDVIRVLLSFMEKRLHQTHRLKESVAPVLSVLTECARMHRPARKFLKAQVLPPLRDVRTRPEVGELLRNKLVRLMTHLDTDVKRVAAEFLFVLCSESVPRFIKYTGYGNAAGLLAARGLMAGGRPEGQYSEDEDTDTDEYKEAKASINPVTGRVEEKPPNPMEGMTEEQKEHEAMKLVNMFDKLSRH
As to B1, the Kd in experiment [1] turned out to be 1700 nM; in experiment [2], 1800 nM.

B2: bovine Ric8A1–492, Q5E9J8 A173W (protein)
chain: B1 chain with R169F, A173W
For the molecule B2, the dissociation constant Kd in experiment [1] and in experiment [2] was above 10000 nM each time.

Source of the values: paper PMC6625990, “Structural underpinnings of Ric8A function as a G-protein α-subunit chaperone and guanine-nucleotide exchange factor” (Nature Communications, 2019).
